Laboratory results taken from publication doi:10.1101/671156, “Oncoprotein CoAA repeats interact with RNA polymerase II CTD repeats” (bioRxiv, 2019).
Square brackets hold non-standard residues; d marks the D form. Ends that are not written are not given here. * marks the point of attachment. Biotin = O=C1N[C@H]2[C@H](CS[C@H]2CCCCC(=O)*)N1; Ahx = NCCCCCC(=O)O

T1: GST-YxxQ (307-545), recombinant CoAA YxxQ repeats (human, UniProt Q96PK6 307-545)
T1 construct: CoAA (RBM14) YxxQ repeats, residues 307-545; also called YxxQ repeats (307-545); recombinant GST fusion CoAA YxxQ repeats; source: recombinant GST fusion protein
T1 sequence (looked up): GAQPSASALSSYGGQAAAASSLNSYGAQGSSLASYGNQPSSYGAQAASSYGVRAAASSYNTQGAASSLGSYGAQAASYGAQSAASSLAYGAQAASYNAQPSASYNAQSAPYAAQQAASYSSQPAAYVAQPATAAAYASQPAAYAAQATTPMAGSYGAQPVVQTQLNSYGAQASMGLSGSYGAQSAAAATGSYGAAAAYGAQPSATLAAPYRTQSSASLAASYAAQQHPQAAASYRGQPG

T2: GST-YxxQ (307-545), recombinant CoAA YxxQ repeats (human, UniProt Q96PK6 307-545)
T2 chain: T1 sequence (looked up)

B1: biotin-labeled Ser5-phosphorylated CTD diheptad peptide (peptide)
peptide: KKSYSPTSPSYSPTSPS
modifications: phosphoserine at Ser5 of each heptad (SYSPTpSPSYSPTpSPS); biotin on the N-terminus; C6 spacer (aminocaproic acid) between KK and the peptide
notes: two lysine residues inserted between biotin and the C6 spacer: [Biotin]-KK-C6-peptide; diheptad of the CTD heptad repeats of the RNAP II largest subunit, printed as SYSPTpSPSYSPTpSPS; also called pSer5 CTD; source: synthetic peptide
B2: biotin-labeled unphosphorylated CTD diheptad peptide (peptide)
peptide: KKSYSPTSPSYSPTSPS
modifications: biotin on the N-terminus; C6 spacer (aminocaproic acid) between KK and the peptide
notes: two lysine residues inserted between biotin and the C6 spacer: [Biotin]-KK-C6-peptide; diheptad of the CTD heptad repeats (YSPTSPS) of the RNAP II largest subunit; also called CTD peptide; unphosphorylated CTD peptide; source: synthetic peptide
B3: non-labeled IERM diheptad peptide (peptide)
peptide: TIERMGSGVERMGPA
notes: diheptad of the IERM repeats of hnRNP M, without biotin label; also called nonlabeled IERM peptide; IERM peptide; source: synthetic peptide
B4: biotin-labeled Ser2-phosphorylated CTD diheptad peptide (peptide)
peptide: KKSYSPTSPSYSPTSPS
modifications: phosphoserine at Ser2 of each heptad (SYpSPTSPSYpSPTSPS); biotin on the N-terminus; C6 spacer (aminocaproic acid) between KK and the peptide
notes: two lysine residues inserted between biotin and the C6 spacer: [Biotin]-KK-C6-peptide; diheptad of the CTD heptad repeats of the RNAP II largest subunit, printed as SYpSPTSPSYpSPTSPS; also called pSer2 CTD; source: synthetic peptide
B5: biotin-labeled IERM diheptad peptide (peptide)
peptide: Biotin-KK[Ahx]TIERMGSGVERMGPA
notes: two lysine residues inserted between biotin and the C6 spacer: [Biotin]-KK-C6-peptide; diheptad of the IERM repeats of hnRNP M; also called IERM peptide; source: synthetic peptide

Experiments:
[1] = target: T1, GST-YxxQ (307-545), recombinant CoAA …; assay: ELISA; GST-YxxQ or GST-AxxQ (307-545) coated at 500 ng/well on 96-well plate with BSA; biotin-labeled diheptad peptides at 6.4-20000 ng/ml overnight; streptavidin-HRP, luminescence; EC50 by sigmoidal non-linear curve fit; details: both partners purified
[2] = target: T2, GST-YxxQ (307-545), recombinant CoAA …; assay: ELISA; competition with biotin-labeled pSer5 CTD peptide
[3] = target: T1, GST-YxxQ (307-545), recombinant CoAA …; assay: ELISA; competition: GST-YxxQ coated; non-labeled IERM peptide at 12.8-40000 ng/ml against a constant concentration of biotin-labeled CTD peptides; streptavidin-HRP; details: both partners purified

| Binder | EC50 [1] | IC50 [2] | binding result [3] |
| --- | --- | --- | --- |
| B1 | 101 nM | – | – |
| B2 | 1070 nM | – | – |
| B3 | – | 106 nM | binds |
| B4 | 135 nM | – | – |
| B5 | 83 nM | – | – |
